The results in this text go back to the RNAGym collection of RNA variant scans (doi:10.1093/nar/gkz1192).

B1: CPEB3 Ribozyme (parent)
chain: UAACAGGGGGCCACAGCAGAAGCGUUCACGUCGCAGCCCCUGUCAGAUUCUGGUGAAUCUGCGAAUUCUGCUGUAUAUCUC

This series covers variants of B1. The series can be described thus: self-cleavage, relative activity (ratio to wild type); higher = more cleavage; in vitro, sequencing. In a few lines:
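Barcoded CPEB3 ribozyme mutants, produced by rounds of error-prone PCR, self-cleaved while being transcribed with T7 RNA polymerase for 5 hours at 37°C and during a subsequent 15 min DNase I step before EDTA was added. Sequencing of template-switched cDNA on Illumina gave cleaved and total reads, and DNA sequencing assigned barcodes to variants. Each variant's relative activity is its cleaved/total read fraction divided by the unmutated ribozyme's fraction, averaged across three batches. A variant needed a minimum of 5 reads.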
Regarding UAACAGGGGGCCACAGCAGAAGCGUUCACGUCGCAGCCCCUGUCAUAUUCUGGUGAACCUGCGAAUUCUGCUGUAUAUCUC, the self-cleavage was 0.17.
Turning to UAACAGGGGGCCACAGCAGAAGCGUUCACGUCGCAGCCCCUGUCAUAUUCUGGUGAAUCUGCGAAUUCUGCUGUAUGUCUC, the self-cleavage was 0.2.
The result for UAACAGGGGGCCACAGCAGAAGCGUUCACGUCGCAGCCCCUGUCAUAUUCUGGUGAAUCUGCGAAUUCUGCUAUAUAUCUC reads 0.81; that for UAACAGGGGGCCACAGCAGAAGCGUUCACGUCGCAGCCCCUGUCAUAUACUGGUGAAUCUGCGAAUUCUGCUGUAUAUCUC, 0.29; that for UAACAGGGGGCCACAGCAGAAGCGUUCACGUCGCAGCCCCUGUCAUAUUCUGGUGAGUCUGCGAAUUCUGCUGUAUAUCUC, 0.22.
The figure for UAACAGGGGGCCACAGCAGAAGCGUUCACGUCGCAGCCCCUGUCAUAUUCUGGGGAAUCUGCGAAUUCUGCUGUAUAUCUC is 0.16; for UAACAGGGGGCCACAGCAGAAGCGUUCACGUCGCAGCCCCUGUCAUAUUCUGGCGAAUCUGCGAAUUCUGCUGUAUAUCUC it is 0.14; for UAACAGGGGGCCACAGCAGAAGCGUUCACGUCGCAGCCCCUGUCACAUUCUGGUGAAUCAGCGAAUUCUGCUGUAUAUCUC it is 0.11.
The result for UAACAGGGGGCCACAGCAGAAGCGUUCACGUCGCAGCCCCUGUCACAUUCUGGUGAAUCCGCGAAUUCUGCUGUAUAUCUC reads 0.2.
UAACAGGGGGCCACAGCAGAAGCGUUCACGUCGCAGCCCCUGUCACAUUCUGGUGAAUCUGCGAAUUCUGCUGUAUAUCAC: the self-cleavage came to 0.2.
The result for UAACAGGGGGCCACAGCAGAAGCGUUCACGUCGCAGCCCCUGUCAUAUUCUGGUGAAUCUGCGAAUUCUGCUGUCUAUCUC reads 0.37.
The figure for UAACAGGGGGCCACAGCAGAAGCGUUCACGUCGCAGCCCCUGUCAUAUUCUGGUGAAUCUGCGAAUUCUGCUGUGUAUCUC is 0.22; for UAACAGGGGGCCACAGCAGAAGCGUUCACGUCGCAGCCCCUGUCAUAGUCUGGUGAAUCUGCGAAUUCUGCUGUAUAUCUC it is 0.14; for UAACAGGGGGCCACAGCAGAAGCGUUCACGUCGCAGCCCCUGUCAUAUUCUGGUGAAUCUGCGAAUUCUGCUGUAUAUCUC it is 0.28.
The figure for UAACAGGGGGCCACAGCAGAAGCGUUCACGUCGCAGCCCCUGUCAUAUUCUGCUGAAUCUGCGAAUUCUGCUGUAUAUCUC is 0.23; for UAACAGGGGGCCACAGCAGAAGCGUUCACGUCGCAGCCCCUGUCACAUUCUGGUGAAUCUGCGAAUUCUGCUGUAUACCUC it is 0.21; for UAACAGGGGGCCACAGCAGAAGCGUUCACGUCGCAGCCCCUGUCACAUUCUGGUGAAUCUGCGAAUUCUGCUGUACAUCUC it is 0.5.
In the case of UAACAGGGGGCCACAGCAGAAGCGUUCACGUCGCAGCCCCUGUCACAUUCUGGUGAAUCUGCGAAUUCUGCUGUAAAUCUC, the self-cleavage came out at 0.22.
The result for UAACAGGGGGCCACAGCAGAAGCGUUCACGUCGCAGCCCCUGUCAUGUUCUGGUGAAUCUGCGAAUUCUGCUGUAUAUCUC reads 0.15; that for UAACAGGGGGCCACAGCAGAAGCGUUCACGUCGCAGCCCCUGUCAUAUUCUGGUGAAUCUGCGAGUUCUGCUGUAUAUCUC, 0.07.
UAACAGGGGGCCACAGCAGAAGCGUUCACGUCGCAGCCCCUGUCAUAUUCUGGUGAAUCUGCGAAUCCUGCUGUAUAUCUC: the self-cleavage was found to be 0.03.
The result for UAACAGGGGGCCACAGCAGAAGCGUUCACGUCGCAGCCCCUGUCAUAUUCUGGUGAAUCUGCGAAUACUGCUGUAUAUCUC reads 0.23.
The result for UAACAGGGGGCCACAGCAGAAGCGUUCACGUCGCAGCCCCUGUCAUAUUCUGGUGAAUCCGCGAAUUCUGCUGUAUAUCUC reads 0.19.
UAACAGGGGGCCACAGCAGAAGCGUUCACGUCGCAGCCCCUGUCAUAUUCUGGUGAAUCAGCGAAUUCUGCUGUAUAUCUC: the self-cleavage was 0.38.
The figure for UAACAGGGGGCCACAGCAGAAGCGUUCACGUCGCAGCCCCUGUCAUAUUCUGGUGGAUCUGCGAAUUCUGCUGUAUAUCUC is 0.18.
With UAACAGGGGGCCACAGCAGAAGCGUUCACGUCGCAGCCCCUGUCAUAUUCUGGUGUAUCUGCGAAUUCUGCUGUAUAUCUC, the self-cleavage was found to be 0.17.
The result for UAACAGGGGGCCACAGCAGAAGCGUUCACGUCGCAGCCCCUGUCAUAUUCUGGUGAAUCUGCGAACUCUGCUGUAUAUCUC reads 0.16; that for UAACAGGGGGCCACAGCAGAAGCGUUCACGUCGCAGCCCCUGUCAUAUUCUGGUGAAUCUGCGUAUUCUGCUGUAUAUCUC, 0.18; that for UAACAGGGGGCCACAGCAGAAGCGUUCACGUCGCAGCCCCUGUCAUAUUCUGGUGAAUCUGCGGAUUCUGCUGUAUAUCUC, 0.16.
The figure for UAACAGGGGGCCACAGCAGAAGCGUUCACGUCGCAGCCCCUGUCAUAUUCCGGUGAAUCUGCGAAUUCUGCUGUAUAUCUC is 0.28.
The result for UAACAGGGGGCCACAGCAGAAGCGUUCACGUCGCAGCCCCUGUCAUAUUCUGGUGAAUCUGCGAAUUCUACUGUAUAUCUC reads 0.08; that for UAACAGGGGGCCACAGCAGAAGCGUUCACGUCGCAGCCCCUGUCACAUUCUGGAGAAUCUGCGAAUUCUGCUGUAUAUCUC, 0.15.
With UAACAGGGGGCCACAGCAGAAGCGUUCACGUCGCAGCCCCUGUCACAUUCUGGUGAAUCUGCGAAUUCUGCAGUAUAUCUC, the self-cleavage was found to be 0.25.
The result for UAACAGGGGGCCACAGCAGAAGCGUUCACGUCGCAGCCCCUGUCAUAUUCUGGUGAAUCUGCGAAUUUUGCUGUAUAUCUC reads 0.23.
